What is called Kd is a measure of binding affinity in units of concentration.

The values below come from patent US20150315277A1 (published 2015).

The test deals with recombinant human DLL4 (hDLL4) (human, UniProt Q9NR61 27-524). In words: Biacore. In general terms: SPR reads the build-up and loss of mass on a sensor chip optically.
recombinant human DLL4 (hDLL4), sequence (Q9NR61 27-524): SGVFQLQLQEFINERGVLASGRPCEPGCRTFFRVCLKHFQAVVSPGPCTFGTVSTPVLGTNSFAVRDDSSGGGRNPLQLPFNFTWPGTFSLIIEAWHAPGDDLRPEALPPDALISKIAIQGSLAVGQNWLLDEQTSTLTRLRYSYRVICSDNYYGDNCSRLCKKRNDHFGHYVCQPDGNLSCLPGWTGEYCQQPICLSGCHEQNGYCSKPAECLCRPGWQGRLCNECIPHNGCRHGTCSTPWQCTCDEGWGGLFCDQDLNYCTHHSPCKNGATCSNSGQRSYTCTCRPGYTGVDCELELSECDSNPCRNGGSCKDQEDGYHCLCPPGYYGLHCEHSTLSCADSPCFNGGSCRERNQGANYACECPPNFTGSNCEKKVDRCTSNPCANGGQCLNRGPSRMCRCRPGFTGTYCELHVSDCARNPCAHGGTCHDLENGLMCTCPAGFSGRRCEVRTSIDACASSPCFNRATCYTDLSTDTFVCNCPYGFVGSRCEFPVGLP

B1: Notch-1 Fc (rhNotch1-Fc) (Fc fusion)
chain: ARGPRCSQPGETCLNGGKCEAANGTEACVCGGAFVGPRCQDPNPCLSTPCKNAGTCHVVDRRGVADYACSCALGFSGPLCLTPLDNACLTNPCRNGGTCDLLTLTEYKCRCPPGWSGKSCQQADPCASNPCANGGQCLPFEASYICHCPPSFHGPTCRQDVNECGQKPGLCRHGGTCHNEVGSYRCVCRATHTGPNCERPYVPCSPSPCQNGGTCRPTGDVTHECACLPGFTGQNCEENIDDCPGNNCKNGGACVDGVNTYNCRCPPEWTGQYCTEDVDECQLMPNACQNGGTCHNTHGGYNCVCVNGWTGEDCSENIDDCASAACFHGATCHDRVASFYCECPHGRTGLLCHLNDACISNPCNEGSNCDTNPVNGKAICTCPSGYTGPACSQDVDECSLGANPCEHAGKCINTLGSFECQCLQGYTGPRCEIDVNECVSNPCQNDATCLDQIGEFQCICMPGYEGVHCEVNTDECASSPCLHNGRCLDKINEFQCECPTGFTGHLCQ
With B1, the Kd came to 0.0199 µM.
